The source of these data is PMC2935574 (The Journal of Cell Biology, 2010).

Values joined by “and” are separate entries in the source; they are usually repeats but may differ in a detail not shown here. Equal entries are not always repeated.

The chains are these.
T1: SPC25^70–224 (human, UniProt Q9HBM1 70-224)
T1 sequence (looked up): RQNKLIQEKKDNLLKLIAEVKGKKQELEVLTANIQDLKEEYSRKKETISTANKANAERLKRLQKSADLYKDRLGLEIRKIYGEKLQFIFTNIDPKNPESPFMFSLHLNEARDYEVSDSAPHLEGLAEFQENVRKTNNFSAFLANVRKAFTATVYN

T2: DSN1 (subunit of MIS12C, hexahistidine tag) (human, UniProt Q9H410 1-356)
T2 sequence (looked up): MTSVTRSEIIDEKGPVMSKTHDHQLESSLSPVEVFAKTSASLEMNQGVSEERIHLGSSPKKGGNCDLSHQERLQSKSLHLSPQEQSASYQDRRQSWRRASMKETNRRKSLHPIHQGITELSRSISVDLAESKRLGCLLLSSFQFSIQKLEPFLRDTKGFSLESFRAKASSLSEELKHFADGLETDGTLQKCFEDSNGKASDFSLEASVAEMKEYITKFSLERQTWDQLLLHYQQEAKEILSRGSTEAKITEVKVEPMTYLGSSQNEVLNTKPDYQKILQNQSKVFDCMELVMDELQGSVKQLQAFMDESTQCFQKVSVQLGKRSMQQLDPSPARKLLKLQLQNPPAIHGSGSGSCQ

T3: KNL1^2106–2316 (C-terminal region of KNL1) (human, UniProt Q8NG31-2 2106-2316)
T3 sequence (looked up): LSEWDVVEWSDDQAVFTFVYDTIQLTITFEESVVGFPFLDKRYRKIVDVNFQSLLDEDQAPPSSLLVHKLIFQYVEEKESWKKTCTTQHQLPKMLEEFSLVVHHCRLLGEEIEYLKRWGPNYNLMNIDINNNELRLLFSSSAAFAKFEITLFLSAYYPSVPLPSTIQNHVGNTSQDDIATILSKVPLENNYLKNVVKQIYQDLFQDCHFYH

B1: SPC24^57–197–SPC25^70–224 (complex, human)
chain 1: TMEKEVAQSLLNAKEQVHQGGVELQQLEAGLQEAGEEDTRLKASLLQLTRELEELKEIEADLERQEKEVDEDTTVTIPSAVYVAQLYHQVSKIEWDYECEPGMVKGIHHGPSVAQPIHLDSTQLSRKFISDYLWSLVDTEW
chain 2: T1 sequence (looked up)
B2: SPC24^57–197 (domain or fragment, human, UniProt Q8NBT2 57-197, looked up)
chain: B1 chain 1
B3: MIS12C^NSL1-227 (MIS12 complex with a more extensive C-terminal deletion of NSL1) (complex, human)
chain 1: MSVDPMTYEAQFFGFTPQTCMLRIYIAFQDYLFEVMQAVEQVILKKLDGIPDCDISPVQIRKCTEKFLCFMKGHFDNLFSKMEQLFLQLILRIPSNILLPEDKCKETPYSEEDFQHLQKEIEQLQEKYKTELCTKQALLAELEEQKIVQAKLKQTLTFFDELHNVGRDHGTSDFRESLVSLVQNSRKLQNIRDNVEKESKRLKIS
chain 2: MAEASSANLGSGCEEKRHEGSSSESVPPGTTISRVKLLDTMVDTFLQKLVAAGSYQRFTDCYKCFYQLQPAMTQQIYDKFIAQLQTSIREEISDIKEEGNLEAVLNALDKIVEEGKVRKEPAWRPSGIPEKDLHSVMAPYFLQQRDTLRRHVQKQEAENQQLADAVLAGRRQVEELQLQVQAQQQAWQALHREQRELVAVLREPE
chain 3: T2 sequence (looked up)
chain 4: MAGSPELVVLDPPWDKELAAGTESQALVSATPREDFRVRCTSKRAVTEMLQLCGRFVQKLGDALPEEIREPALRDAQWTFESAVQENISINGQAWQEASDNCFMDSDIKVLEDQFDEIIVDIATKRKQYPRKILECVIKTIKAKQEILKQYHPVVHPLDLKYDPDPAPHMENLKCRGETVAKEISEAMKSLPALIEQGEGFSQVLRMQPVIHLQRIHQEVFSSCHRK
B4: MIS12 (subunit of MIS12C) (natural protein, human, UniProt Q9H081 1-205, looked up)
chain: B3 chain 1
B5: MIS12C–KNL1^2106–2316 (five-subunit complex) (complex, human)
chain 1: B3 chain 1
chain 2: B3 chain 2
chain 3: T2 sequence (looked up)
chain 4: MAGSPELVVLDPPWDKELAAGTESQALVSATPREDFRVRCTSKRAVTEMLQLCGRFVQKLGDALPEEIREPALRDAQWTFESAVQENISINGQAWQEASDNCFMDSDIKVLEDQFDEIIVDIATKRKQYPRKILECVIKTIKAKQEILKQYHPVVHPLDLKYDPDPAPHMENLKCRGETVAKEISEAMKSLPALIEQGEGFSQVLRMQPVIHLQRIHQEVFSSCHRKPDAKPENFITQIETTPTETASRKTSDMVLKRKQTKDCPQRKWYPLRPKKINLDT
chain 5: T3 sequence (looked up)
B6: MIS12C^NSL1-258 (MIS12 complex with NSL1 residues 1–258) (complex, human)
chain 1: B3 chain 1
chain 2: B3 chain 2
chain 3: T2 sequence (looked up)
chain 4: MAGSPELVVLDPPWDKELAAGTESQALVSATPREDFRVRCTSKRAVTEMLQLCGRFVQKLGDALPEEIREPALRDAQWTFESAVQENISINGQAWQEASDNCFMDSDIKVLEDQFDEIIVDIATKRKQYPRKILECVIKTIKAKQEILKQYHPVVHPLDLKYDPDPAPHMENLKCRGETVAKEISEAMKSLPALIEQGEGFSQVLRMQPVIHLQRIHQEVFSSCHRKPDAKPENFITQIETTPTETASRKTSDMVLKR
B7: NSL1^227–281 (C-terminal tail of NSL1) (domain or fragment, human, UniProt Q96IY1 227-281, looked up)
chain: KPDAKPENFITQIETTPTETASRKTSDMVLKRKQTKDCPQRKWYPLRPKKINLDT

Assay [1] has as its target fluorescein-labeled synthetic peptides encompassing residues 205–217 or 202–219 of NSL1. Nature of the assay: fluorescence polarisation. A general note: In fluorescence polarisation assays a small probe gives low polarisation when free and higher when bound to something large.
In assay [2] the target is B6. Nature of the assay: AUC.
Assay [3] deals with B6. Nature of the assay: ITC. (In general: Isothermal titration calorimetry measures the heat released or taken up as one component is titrated into another.)
The target in the next assay is T1, SPC25^70–224. Nature of the assay: AUC.
Assay [4] deals with T4, NDC80 complex (four-subunit NDC80C) (human, UniProt O14777 1-642; Q9BZD4 1-464; Q8NBT2 1-197; Q9HBM1 1-224). Description: SEC. A general note: SEC sorts molecules by how far they enter the pores of the column.
T4 sequence (O14777 whole entry, chain 1 of 4): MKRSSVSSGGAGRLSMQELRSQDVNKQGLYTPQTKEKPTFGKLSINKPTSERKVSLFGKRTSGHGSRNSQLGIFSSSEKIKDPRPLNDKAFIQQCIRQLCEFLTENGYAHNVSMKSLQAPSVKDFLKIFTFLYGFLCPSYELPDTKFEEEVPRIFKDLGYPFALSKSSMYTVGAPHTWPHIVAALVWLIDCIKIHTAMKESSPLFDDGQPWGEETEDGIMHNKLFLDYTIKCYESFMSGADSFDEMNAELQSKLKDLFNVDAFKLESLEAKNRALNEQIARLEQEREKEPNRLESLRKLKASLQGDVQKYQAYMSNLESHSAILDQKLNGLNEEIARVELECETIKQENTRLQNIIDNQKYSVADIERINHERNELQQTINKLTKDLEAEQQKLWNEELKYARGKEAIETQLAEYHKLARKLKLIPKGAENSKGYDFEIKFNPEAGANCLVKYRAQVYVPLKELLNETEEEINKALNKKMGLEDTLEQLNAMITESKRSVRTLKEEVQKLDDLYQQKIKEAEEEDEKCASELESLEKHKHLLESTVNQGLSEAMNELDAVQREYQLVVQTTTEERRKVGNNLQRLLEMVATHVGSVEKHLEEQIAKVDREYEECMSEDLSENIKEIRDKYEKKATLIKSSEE
T4 sequence (Q9BZD4 whole entry, chain 2 of 4): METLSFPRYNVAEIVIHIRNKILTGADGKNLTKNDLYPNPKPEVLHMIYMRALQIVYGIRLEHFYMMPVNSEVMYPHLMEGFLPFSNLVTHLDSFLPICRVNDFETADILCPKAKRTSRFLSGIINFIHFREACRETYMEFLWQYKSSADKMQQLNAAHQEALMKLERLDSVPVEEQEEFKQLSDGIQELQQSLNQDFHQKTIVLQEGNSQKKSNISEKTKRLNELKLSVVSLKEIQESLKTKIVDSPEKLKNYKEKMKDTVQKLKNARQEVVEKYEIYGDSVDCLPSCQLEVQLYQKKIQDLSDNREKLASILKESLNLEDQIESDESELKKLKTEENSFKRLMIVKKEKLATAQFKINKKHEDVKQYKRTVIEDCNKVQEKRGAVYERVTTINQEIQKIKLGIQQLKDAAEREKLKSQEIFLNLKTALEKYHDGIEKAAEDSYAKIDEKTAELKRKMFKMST
T4 sequence (Q8NBT2 whole entry, chain 3 of 4): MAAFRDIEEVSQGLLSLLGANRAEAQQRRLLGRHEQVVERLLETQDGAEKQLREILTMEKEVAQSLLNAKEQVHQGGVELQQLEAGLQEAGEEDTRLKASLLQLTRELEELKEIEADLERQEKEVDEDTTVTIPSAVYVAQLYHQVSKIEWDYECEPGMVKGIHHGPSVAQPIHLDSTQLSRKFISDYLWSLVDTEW
T4 sequence (Q9HBM1 whole entry, chain 4 of 4): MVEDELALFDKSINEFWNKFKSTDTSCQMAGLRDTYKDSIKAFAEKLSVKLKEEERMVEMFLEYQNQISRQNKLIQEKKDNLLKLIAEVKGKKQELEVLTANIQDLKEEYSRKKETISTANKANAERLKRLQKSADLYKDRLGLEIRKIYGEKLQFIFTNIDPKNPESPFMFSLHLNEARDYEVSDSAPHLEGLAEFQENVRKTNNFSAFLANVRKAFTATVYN
Assay [5] concerns the target T2, DSN1 (subunit of MIS12C, hexahistidine …). Description: co-expression and co-purification.
For assay [6], the target named is T4, NDC80 complex (four-subunit NDC80C). Description: ITC.
Assay [7] concerns the target T3, KNL1^2106–2316 (C-terminal region of …). Description: ITC.

With “HP1^110–191 (chromoshadow domain of HP1-α) (from UniProt P45973 110-191) (domain or fragment)”, the dissociation constant Kd – broadly, the constant that tells how readily two partners part at equilibrium – in assay [1] lay within 400 to 500 nM. On to B1, for which the stoichiometry N (as a rule, the number of molecules, sites or subunits per partner or assembly) in assay [2] was 1. Further, the Kd in assay [3] is about 10 nM.

With B2, in the assay with SPC25^70–224, the “stoichiometry N” value was determined as 1.

On to B3, for which, in assay [4], the binding result is “binds”.

B4: in assay [5], the binding result is on record as “binds”.

In assay [6], B5 gave a Kd of 4 nM. In turn, B6 came in with a Kd in assay [6] of about 10 nM.

Consider B7, for which, in assay [7], the dissociation constant (Kd) was ~63 nM and ~130 nM; the “stoichiometry N” value came out at 1.
